Test [1] concerns the target human PCSK9 with C-terminal murine Fc, biotin-labelled (PCSK9-mFc-biotin) (human) (UniProt Q8NBP7). As to the kind of experiment: blocking ELISA, binding of PCSK9 to LDL-R. For orientation: ELISA stands for enzyme-linked immunosorbent assay.
Test [2] deals with human PCSK9 (construct not stated) (human) (UniProt Q8NBP7). As to the kind of experiment: cell-based or functional assay.
For test [3], the target named is human PCSK9 with C-terminal 6-His tag, biotin-labelled (PCSK9-His-biotin) (human) (UniProt Q8NBP7). As to the kind of experiment: ELISA binding to human PCSK9.
The target in test [4] is T1, human PCSK9 (construct not stated) (human, UniProt Q8NBP7 31-692, limits assumed).
T1 construct: Analyte in SPR (molecular weight of 85 KDa used for the molar concentration), added at 20 ug/ml in LDL-uptake assays; biotin-labelled in the serum stability ELISA; also called wild type PCSK9; Biotin-labeled PCSK9
Nature of the test: SPR Biacore, antibody captured, human PCSK9 as analyte. The protocol: (§1) Antibody binding affinity to human and rhesus PCSK9 was detected by SPR assay using Biacore T200 (GE). Each antibody was captured on anti-murine IgG Fc antibody (GE) or anti-human IgG Fc antibody (Genway) immobilized CM5 sensor chip (GE). Human or rhesus PCSK9 at different concentrations were injected over the sensor chip at a flow rate of […] for an association phase of 180 s, followed by 1200 s dissociation. The chip was regenerated by 2 M MgCl₂ after each binding cycle.
(§2) The sensorgrams for blank surface and buffer channel are subtracted from the test sensorgrams. The experimental data was fitted by 1:1 model using Langmiur analysis. Molecular weight of 85 KDa was used to calculate the molar concentration of analyte.
On the technique in general: Surface plasmon resonance follows binding to a sensor surface in real time, without labels.

The target of test [5] is T2, rhesus (monkey) PCSK9, SPR analyte, construct not stated (rhesus monkey, UniProt A8T666 31-692, limits assumed).
T2 construct: also called rhesus PCSK9
T2 sequence (A8T666 31-692 limits assumed): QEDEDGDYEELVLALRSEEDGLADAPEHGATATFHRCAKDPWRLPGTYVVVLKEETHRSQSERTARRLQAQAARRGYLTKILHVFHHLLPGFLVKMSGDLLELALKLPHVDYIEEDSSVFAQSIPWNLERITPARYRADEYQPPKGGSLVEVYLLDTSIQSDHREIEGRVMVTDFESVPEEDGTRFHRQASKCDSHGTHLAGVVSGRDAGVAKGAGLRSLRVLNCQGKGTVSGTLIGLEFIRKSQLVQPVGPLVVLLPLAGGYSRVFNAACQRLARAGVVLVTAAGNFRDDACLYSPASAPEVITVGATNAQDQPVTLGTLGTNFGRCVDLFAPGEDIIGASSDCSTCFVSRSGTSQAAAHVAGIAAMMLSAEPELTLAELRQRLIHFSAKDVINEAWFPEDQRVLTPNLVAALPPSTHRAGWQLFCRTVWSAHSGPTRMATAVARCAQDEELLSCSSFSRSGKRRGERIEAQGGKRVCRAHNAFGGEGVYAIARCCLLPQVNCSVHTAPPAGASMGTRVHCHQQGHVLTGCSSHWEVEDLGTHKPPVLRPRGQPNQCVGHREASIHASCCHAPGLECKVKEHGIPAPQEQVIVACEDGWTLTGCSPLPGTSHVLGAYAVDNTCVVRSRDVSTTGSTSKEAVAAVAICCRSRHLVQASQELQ
Nature of the test: SPR Biacore, antibody captured, monkey PCSK9 as analyte. The protocol: as §1, §2

The target of test [6] is T3, human PCSK9 with C-terminal murine Fc, biotin-labelled (PCSK9-mFc-biotin) (human, UniProt Q8NBP7 31-692, limits assumed, biotin-labelled, site not stated).
T3 construct: not shown: murine Fc (mFc) fused at the C-terminus
Nature of the test: competition ELISA, antibody premixed with PCSK9-mFc-biotin, binding to coated LDL-R. The method, then:
Blocking assay by ELISA: Plates (Nunc) were coated with LDL-R overnight at 4° C. Hybridoma supernatants were mixed with 250 ng/ml PCSK9-mFc-biotin and incubated at 4° C. overnight. After blocking and washing, the mixture were added to the plates and incubated for 1 h. The plates were then washed and subsequently incubated with streptavidin-HRP. After washing, TMB substrate was added and the interaction was stopped by 2M HCl. The absorbance at 450 nm was read using a microplate reader (Molecular Device).
(§3) Binding and blocking activities were confirmed using purified antibodies (FIGS. 1 and 2).

Test [7] has as its target T4, rhesus PCSK9-His (Sino Biological) (rhesus monkey, UniProt A8T666 31-692, limits assumed).
T4 construct: also called rhesus monkey PCSK9; monkey PCSK9
Nature of the test: ELISA, rhesus PCSK9-His captured on anti-His antibody. The protocol: ELISA plates (Nunc) were coated with anti-His antibody (Genscript) at 1 μg/ml overnight at 4° C. After blocking and washing, 1 μg/ml rhesus PCSK9-His (Sino Biological) was added and incubated for 1 h. The antibody samples were added to the plates and incubate at room temperature for 1 h. The plates were then washed and subsequently incubated with secondary antibody goat anti mouse-IgG-Fc-HRP (Bethyl) for 45 min. After washing, TMB substrate was added and the interaction was stopped by 2M HCl. The absorbance at 450 nm was read using a microplate reader (Molecular Device).
Binding to monkey PCSK9: the affinity of selected antibodies binding to rhesus monkey PCSK9 was measured by ELISA (see FIG. 4).

Test [8] concerns the target T1, human PCSK9 (construct not stated). As to the kind of experiment: SPR Biacore T200, antibody captured by anti-Fc antibody, PCSK9 as analyte, 1:1 fit. The method, then:
as §1, §2
Kinetic affinity by SPR: the affinities of selected clones binding to human PCSK9 were measured by SPR assay.

For test [9] the target is unchanged. As to the kind of experiment: cell-based or functional assay.
Test [10] has as its target T5, human PCSK9 with C-terminal 6-His tag, biotin-labelled (PCSK9-His-biotin) (human, UniProt Q8NBP7 31-692, biotin-labelled, site not stated).
T5 construct: Made in HEK293, purified on Ni column
Nature of the test: ELISA, purified antibody on PCSK9-His-biotin captured on streptavidin. The protocol:
Binding assay by ELISA: Plates (Nunc) were coated with Streptavidin at 1 μg/ml overnight at 4° C. After blocking and washing, 250 ng/ml PCSK9-His-biotin was added and incubated for 1 h. Then hybridoma supernatants were transferred to the plates and incubate at room temperature for 1 h. The plates were then washed and subsequently incubated with secondary antibody goat anti mouse-IgG-Fc-HRP (Bethyl) for 1 h. After washing, TMB substrate was added and the interaction was stopped by 2M HCl. The absorbance at 450 nm was read using a microplate reader (Molecular Device).
as §3

In test [11] the target is T3, human PCSK9 with C-terminal murine Fc, …. As to the kind of experiment: blocking ELISA, binding of PCSK9 to LDL-R.
Test [12] addresses T1, human PCSK9 (construct not stated). Nature of the test: ELISA, biotin-labelled PCSK9 on a streptavidin plate, antibody in human serum, 3 days at 37 C, goat anti-human-HRP, OD450. The protocol: (§4) After incubation at 37° C., samples were rapidly frozen in dry-ice-ethanol bath and kept at −80° C. The samples were rapidly thawed before stability test. The plates were coated with streptavidin in Na₂CO₃/NaHCO₃ (pH 9.2) buffer at 4° C. overnight. The plates were washed with 0.1% Tween-PBS once before being blocked with 2% BSA/PBS. Biotin-labeled PCSK9 was added and incubated for 1 hr. After washing, then diluted serum samples were transferred to the plates and incubated for 1 hr at room temperature. Goat anti-human-HRP antibody were added to the wells and incubated for 1 hr. After washing, TMB substrate was added and the interaction was stopped by 2 M HCl. The absorbance at 450 nm was read using a microplate reader (Molecular Device).
(§5) The antibody binding to human PCSK9 was tested by ELISA after incubation in human serum at 37° C.

For test [13], the target named is T5, human PCSK9 with C-terminal 6-His tag, …. As to the kind of experiment: ELISA binding to human PCSK9.
In test [14] the target is T1, human PCSK9 (construct not stated). Nature of the test: ELISA, biotin-labelled PCSK9 on a streptavidin plate, antibody in human serum, 0 days at 37 C, goat anti-human-HRP, OD450. The protocol:
as §4, §5

For test [15], the target named is T2, rhesus (monkey) PCSK9, SPR analyte, …. As to the kind of experiment: SPR, monkey PCSK9. The protocol: as §1, §2
The binding activity of engineered antibody was evaluated by SPR affinity test.

Test [16] concerns the target T1, human PCSK9 (construct not stated). Nature of the test: SPR, human PCSK9.

T4 sequence (A8T666 31-692 limits assumed): as above

In general, IC50 refers to the concentration at which inhibition is half-maximal. As usually defined, the EC50 is the concentration needed to bring the measured effect to its halfway point. In turn, Repatha (evolocumab) (antibody) registered a 50% inhibitory concentration (IC50) in test [1] of 2.1 nM. In test [2], this molecule displayed an IC50 (nM), LDL-uptake assay, HepG2 of 77.6 nM and an IC50 (nM), LDL-uptake assay, Huh-7 of 98.2 nM. In test [3], this molecule registered an EC50 of 0.038 nM.

B1: 2.6.6-z4-uIgG1k (antibody, V domains shown)
VH: QVQLVQSGAEVKKPGASVKVSCKASGYTFTSYWIHWVRQAPGQGLEWMGELNPSDGRTNYNEKFKNKATMTVDTSTSTVYMELSSLRSEDTAVYYCARSNFYGSSSFANWGQGTLVTVSS
VL: DIQMTQSPSSLSASVGDRVTITCSASSSVSYMNWYQQKPGKAPKLLIYGISNLASGVPSRFSGSGSGTDFTFTISSLQPEDIATYYCQQRSSYPPTFGGGTKVEIK
notes: Humanized antibody of 2.6.6 with a human constant region of IgG1 isotype, kappa light chain
For orientation: Kd means the equilibrium constant for the complex coming apart. Broadly, the koff is a measure of how fast the partners let go of each other. As a reminder, the kon is the rate constant with which the complex forms. As for B1, in test [4], binding was characterised by a dissociation constant (Kd) of 2.11 nM, the koff came to 4.69e-05 s⁻¹ and the on-rate constant (kon) is 22200 M⁻¹ s⁻¹. In test [5], binding was characterised by a dissociation constant (Kd) of 0.19 nM, the koff was determined as 3.78e-06 s⁻¹ and the kon is 19900 M⁻¹ s⁻¹.

B2: 2.12.12.4 (antibody, V domains shown)
VH: EVQLQQSGPELVKPGASVKMSCEASGYTFTNYVMHWVKQKPGQGLEWIGYINPYNDYIKYNEKFKGKATLTSDKSSSTTYLEVSSLTSEDSAVYYCGRQRYYGYRPYYAMDYWGQGTSVTVSS
VL: NIVLTQSPASLAVSLGQRATISCRASESVDGYGNVFMHWYQQKPGQPPKLLIYLASNLESGVPDRFSGSGSRTDFTLTIDPVEADDAATYYCQQNNKDPWTFGGGTKLEIK
notes: Mouse monoclonal antibody purified from hybridoma supernatant; also called parental murine antibody
For the molecule B2, the IC50 in [6] was determined as 3 nM. The molecule further registered a Kd in test [7] of 0.5 nM. Also, in test [8], binding was characterised by a dissociation constant (Kd) of 0.0531 nM, the koff stood at 5.43e-05 s⁻¹ and the kon is 1.02e+06 M⁻¹ s⁻¹. In addition, the “IC50 (nM), LDL-uptake assay in HepG2 cells” value in test [9] is 72.5 nM. Further, it took 0.14 nM to reach a half-maximal effect in test [10] (EC50).

B3: 2.12.12.4-z4-uIgG4k (antibody, V domains shown)
VH: QVQLVQSGAEVKKPGSSVKVSCEASGYTFTNYVMHWVRQAPGQGLEWMGYINPYNDYIKYNEKFKGKATITADKSTSTAYMELSSLRSEDTAVYYCGRQRYYGYRPYYAMDYWGQGTLVTVSS
VL: DIVLTQSPASLAVSPGQRATITCRASESVDGYGNVFMHWYQQKPGQPPKLLIYLASNLESGVPARFSGSGSGTDFTLTINPVEANDTANYYCQQNNKDPWTFGGGTKVEIK
notes: the chains here are derived by undoing them; Human constant region of IgG4 isotype, kappa light chain
By EC50 (read off the curve) is commonly meant the concentration that produces a half-maximal response. For the molecule B3, in [4], the dissociation constant (Kd) was 0.0271 nM, the koff stood at 2.67e-05 s⁻¹ and the kon was 984000 M⁻¹ s⁻¹. Moreover, in test [11], the concentration for half-maximal inhibition (IC50) was found to be 1.9 nM. In addition, in test [12], the “EC50 (read off the curve)” value was approximately 0.07 nM. In test [5], this molecule yielded a Kd of 0.379 nM, a koff of 0.000303 s⁻¹ and a kon of 800000 M⁻¹ s⁻¹. The same molecule yielded a 50% effective concentration (EC50) in test [13] of 0.026 nM. Moreover, the concentration for a half-maximal effect (EC50 (read off the curve)) in test [14] is approximately 0.06 nM.

B4: 2.12.12.4-v2-z4-uIgG4k (antibody, V domains shown)
VH: QVQLVQSGAEVKKPGSSVKVSCEASGYTFTNYVMHWVRQAPGQGLEWMGYINPYNDYIKYNEKFKGKATITADKSTSTAYMELSSLRSEDTAVYYCGRQRYYGYRPYYAMDYWGQGTLVTVSS
VL: DIVLTQSPASLAVSPGQRATITCRASESVEGYGNVFMHWYQQKPGQPPKLLIYLASNLESGVPARFSGSGSGTDFTLTINPVEADDTANYYCQQNNKDPWTFGGGTKVEIK
notes: Engineered humanized antibody with a human constant region of IgG4 isotype, kappa light chain; also called engineered antibody lead
B4: in test [15], the Kd amounted to 0.522 nM, the koff is 0.000291 s⁻¹ and the kon amounted to 558000 M⁻¹ s⁻¹. Besides, in test [16], the Kd was found to be 0.0423 nM, the koff was determined as 4.32e-05 s⁻¹ and the kon stood at 1.02e+06 M⁻¹ s⁻¹.

B5: 2.6.6 (antibody, V domains shown)
VH: QVQLQQPGAEVVKPGASVTVSCKASGYTFTSYWIHWVMQRPGQGLEWIGELNPSDGRTNYNEKFKNKATLTVDTSSSTVYMQLSSLTSEDSAVYYCARSNFYGSSSFANWGQGTLVTVSA
VL: EILLTQSPAIIAASPGEKVTITCSASSSVSYMNWYQQKPGSSPILWIYGISNLASGVPARFSGSGSGTSFSFTINNMEAEDVATYYCQQRSSYPPTFGGGTKLEIK
notes: Mouse monoclonal antibody purified from hybridoma supernatant; also called 2.6.6 (mouse antibody)
B5 returned an IC50 in test [6] of 8.5 nM. The molecule further gave a Kd in [7] of 0.6 nM. In test [8], binding was characterised by a dissociation constant (Kd) of 1.08 nM, the koff stood at 0.000148 s⁻¹ and the kon came to 137000 M⁻¹ s⁻¹. For the same molecule, the “IC50 (nM), LDL-uptake assay in HepG2 cells” value in [9] worked out at 130 nM. A half-maximal response in test [10] (EC50) required 0.14 nM.

The values above are taken from US20200165354A1 (WUXI BIOLOGICS IRELAND, published 2020).
